In patent US20090022728A1 one finds A450 ELISA data, which are given here for eight molecules.

Test [1] concerns the target Aβ1-40 peptide. Nature of the test: ELISA, nonbiotinylated peptide on plate. (In general: An ELISA detects its analyte on a solid surface through an enzyme-linked reagent.)
The target of test [2] is Aβ1-42 peptide. Nature of the test: ELISA, nonbiotinylated peptide on plate.
Chain of Aβ1-42 peptide (peptide, as listed by the source): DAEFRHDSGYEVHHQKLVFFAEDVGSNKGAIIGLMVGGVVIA

Chain of Aβ1-40 peptide (peptide, as listed by the source): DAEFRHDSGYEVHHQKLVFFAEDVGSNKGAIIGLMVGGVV

B1: 6G heavy chain variant 7D (N101C) (antibody, V domains shown)
VH: QVQLVQSGAEVKKPGASVKVSCKASGYTFTTYAIHWVRQAPGQGLEWMGFTSPYSGVSNYNQKFKGRVTMTRDTSTSTVYMELSSLRSEDTAVYYCARFDCYDRGYVRDYWGQGTLVTVS
VL: DIVMTQSPDSLAVSLGERATINCRASESVDNDRISFLNWYQQKPGQPPKLLIYAATKQGTGVPDRFSGSGSGTDFTLTISSLQAEDVAVYYCQQSKEFPWSFGGGTKVEIKR
Regarding B1, the A450 ELISA in test [1] turned out to be 0.23 A450; in test [2] it was 0.31 A450.

B2: 6G light chain variant 6E (E97P) (antibody, V domains shown)
VH: QVQLVQSGAEVKKPGASVKVSCKASGYTFTTYAIHWVRQAPGQGLEWMGFTSPYSGVSNYNQKFKGRVTMTRDTSTSTVYMELSSLRSEDTAVYYCARFDNYDRGYVRDYWGQGTLVTVS
VL: DIVMTQSPDSLAVSLGERATINCRASESVDNDRISFLNWYQQKPGQPPKLLIYAATKQGTGVPDRFSGSGSGTDFTLTISSLQAEDVAVYYCQQSKPFPWSFGGGTKVEIKR
In test [2], B2 yielded an A450 ELISA of 0.2 A450.

B3: 6G heavy chain variant 8H (N101H) (antibody, V domains shown)
VH: QVQLVQSGAEVKKPGASVKVSCKASGYTFTTYAIHWVRQAPGQGLEWMGFTSPYSGVSNYNQKFKGRVTMTRDTSTSTVYMELSSLRSEDTAVYYCARFDHYDRGYVRDYWGQGTLVTVS
VL: DIVMTQSPDSLAVSLGERATINCRASESVDNDRISFLNWYQQKPGQPPKLLIYAATKQGTGVPDRFSGSGSGTDFTLTISSLQAEDVAVYYCQQSKEFPWSFGGGTKVEIKR
For B3, the A450 ELISA in test [1] is 0.21 A450.

B4: 6G light chain variant 7E (Q94R) (antibody, V domains shown)
VH: QVQLVQSGAEVKKPGASVKVSCKASGYTFTTYAIHWVRQAPGQGLEWMGFTSPYSGVSNYNQKFKGRVTMTRDTSTSTVYMELSSLRSEDTAVYYCARFDNYDRGYVRDYWGQGTLVTVS
VL: DIVMTQSPDSLAVSLGERATINCRASESVDNDRISFLNWYQQKPGQPPKLLIYAATKQGTGVPDRFSGSGSGTDFTLTISSLQAEDVAVYYCQRSKEFPWSFGGGTKVEIKR
With B4, in test [2], the A450 ELISA was 0.18 A450.

B5: 6G light chain variant 10E (S95L) (antibody, V domains shown)
VH: QVQLVQSGAEVKKPGASVKVSCKASGYTFTTYAIHWVRQAPGQGLEWMGFTSPYSGVSNYNQKFKGRVTMTRDTSTSTVYMELSSLRSEDTAVYYCARFDNYDRGYVRDYWGQGTLVTVS
VL: DIVMTQSPDSLAVSLGERATINCRASESVDNDRISFLNWYQQKPGQPPKLLIYAATKQGTGVPDRFSGSGSGTDFTLTISSLQAEDVAVYYCQQLKEFPWSFGGGTKVEIKR
In the case of B5, the A450 ELISA in test [2] worked out at 0.12 A450.

B6: 6G light chain variant 5B (Q94G) (antibody, V domains shown)
VH: QVQLVQSGAEVKKPGASVKVSCKASGYTFTTYAIHWVRQAPGQGLEWMGFTSPYSGVSNYNQKFKGRVTMTRDTSTSTVYMELSSLRSEDTAVYYCARFDNYDRGYVRDYWGQGTLVTVS
VL: DIVMTQSPDSLAVSLGERATINCRASESVDNDRISFLNWYQQKPGQPPKLLIYAATKQGTGVPDRFSGSGSGTDFTLTISSLQAEDVAVYYCQGSKEFPWSFGGGTKVEIKR
Regarding B6, the A450 ELISA in test [2] amounted to 0.14 A450.

B7: 6G heavy chain variant 9E (N101R) (antibody, V domains shown)
VH: QVQLVQSGAEVKKPGASVKVSCKASGYTFTTYAIHWVRQAPGQGLEWMGFTSPYSGVSNYNQKFKGRVTMTRDTSTSTVYMELSSLRSEDTAVYYCARFDRYDRGYVRDYWGQGTLVTVS
VL: DIVMTQSPDSLAVSLGERATINCRASESVDNDRISFLNWYQQKPGQPPKLLIYAATKQGTGVPDRFSGSGSGTDFTLTISSLQAEDVAVYYCQQSKEFPWSFGGGTKVEIKR
In test [1], B7 displayed an A450 ELISA of 0.22 A450.

B8: 6G light chain variant 7F (Q94K) (antibody, V domains shown)
VH: QVQLVQSGAEVKKPGASVKVSCKASGYTFTTYAIHWVRQAPGQGLEWMGFTSPYSGVSNYNQKFKGRVTMTRDTSTSTVYMELSSLRSEDTAVYYCARFDNYDRGYVRDYWGQGTLVTVS
VL: DIVMTQSPDSLAVSLGERATINCRASESVDNDRISFLNWYQQKPGQPPKLLIYAATKQGTGVPDRFSGSGSGTDFTLTISSLQAEDVAVYYCQKSKEFPWSFGGGTKVEIKR
Consider B8, for which the A450 ELISA in test [2] amounted to 0.19 A450.
